Reference: patent publication US11111484B2, “Streptococcus bacteriophage lysins for detection and treatment of gram positive bacteria” (priority 2011, dated 2021)
Entries after “also recorded” stand apart in the source; their conditions may differ.

Experiments:
B. thuringiensis HD73 = assay: ΔPlySs1 OD600 lysis, 1 hr, optimal buffering conditions; format: cell-based, Bacillus thuringiensis
S. mutans U159 = assay: as above; format: cell-based, Streptococcus mutans
S. pyogenes strain 5005 = assay: resistance assay, exposure to incrementally increasing concentrations; format: cell-based, Streptococcus pyogenes; details: S. pyogenes 5005; concentration doubled daily from 1/32 to 4× MIC over 8 days
MRSA strain MW2 = assay: murine septicemia model, MRSA infection alone; format: in vivo, FVB/NJ mice; details: PlySs2 1 mg
Description: The Rockefeller University's Institutional Animal Care and Use Committee approved all in vivo protocols. A systemic infection model described in Daniel, A. et al., was used to test for the in vivo efficacy of PlySs2 against multiple gram-positive bacteria. Briefly, 4-5 week old female FVB/NJ mice (weight range 15 to 20 g) were obtained from The Jackson Laboratory (Bar Harbor, Me.). After a period of acclimation, mice were injected intraperitoneally (IP) with 0.5 ml of mid log-phase (OD600 0.5) bacteria diluted with 5% hog gastric mucin (Sigma) in saline. Bacterial suspensions contained ˜5×10^5 CFU/ml of MW2, a PVL toxin-encoding MRSA strain, ˜1×10^7 of MGAS5005, an M1 serotype of Streptococcus pyogenes that is virulent in humans and mice (Musser), or a combination of both bacteria simultaneously at the above concentrations for the mix infection experiments. Actual bacterial inoculation titers were calculated by serial dilution and plating to Columbia blood agar plates for each experiment. Mice became bacteremic within one to three hours and contained MRSA and/or S. pyogenes in their organs (including spleen, liver, kidney, and heart/blood) ([50], and unpublished observations). […] The survival rate for each experimental group was monitored every 12 hours for the first 24 hours then every 24 hours up to 10 days post-infection. The data were statistically analyzed by Kaplan Meier Survival curves and a Logrank test performed for 95% confidence intervals using the Prism computer program (GraphPad Software; La Jolla, Calif.).
To determine if the broad lytic activity of PlySs2 could provide in vivo protection from infection with gram-positive pathogens, either alone or as a mixed infection, FVB/NJ mice were intraperitoneally injected with ˜5×10^5 CFU of MRSA strain MW2, ˜1×10^7 of S. pyogenes strain MGAS5005 and/or both bacteria simultaneously at the concentrations above. […] Mice were then monitored for survival over ten days. […]

B1: ΔPlySs1: truncated PlySs1 lysin, SEQ ID NO:2, N-terminal 254 amino acids: only N-terminal enzymatic and central binding domains (protein, listed as Streptococcus suis)
chain: MTINLETSIRWMSDRVGKVSYSMDYRNGPNSYDCSSAVYYALMAGGAISAGWAVNTEYMHDWLIRNGYVLVAENKPFNAQRHDVCILGKRGYSSGAGGHVVIFVDNVNVIHCNYARNGISIDNYNQVHRGMYYYLYRPANQPSISNKSLDQLVKETLAGVHGNGDTRKASLGSQYEAVMAVINGKASASEKSDEELAREVLAGKHGAGEDRKRSLGPRYEPVQAKVNELLKAKEKPSETAKNEPQTVQFKEDGDL
- lysis value after 1 hr (treated/untreated OD600 ratio) (B. thuringiensis HD73; 6.5 μg/ml): 0.99
- lysis value after 1 hr (treated/untreated OD600 ratio) (B. thuringiensis HD73; 13 μg/ml): 0.98
- lysis value after 1 hr (treated/untreated OD600 ratio) (B. thuringiensis HD73; 30 μg/ml): 0.93
- lysis value after 1 hr (treated/untreated OD600 ratio) (B. thuringiensis HD73; 65 μg/ml): 0.86
- lysis value after 1 hr (treated/untreated OD600 ratio) (B. thuringiensis HD73; 130 μg/ml): 0.60
- lysis value after 1 hr (treated/untreated OD600 ratio) (S. mutans U159; 6.5 μg/ml): 0.95
- lysis value after 1 hr (treated/untreated OD600 ratio) (S. mutans U159; 13 μg/ml): 0.99
- lysis value after 1 hr (treated/untreated OD600 ratio) (S. mutans U159; 30 μg/ml): 0.94
- lysis value after 1 hr (treated/untreated OD600 ratio) (S. mutans U159; 65 μg/ml): 0.76
- lysis value after 1 hr (treated/untreated OD600 ratio) (S. mutans U159; 130 μg/ml): 0.85

B2: PlySs2: Streptococcus suis prophage lysin, SEQ ID NO:3; N-terminal CHAP domain and C-terminal SH3-type 5 domain (protein, listed as Streptococcus suis)
chain: MTTVNEALNNVRAQVGSGVSVGNGECYALASWYERMISPDATVGLGAGVGWVSGAIGDTISAKNIGSSYNWQANGWTVSTSGPFKAGQIVTLGATPGNPYGHVVIVEAVDGDRLTILEQNYGGKRYPVRNYYSAASYRQQVVHYITPPGTVAQSAPNLAGSRSYRETGTMTVTVDALNVRRAPNTSGEIVAVYKRGESFDYDTVIIDVNGYVWVSYIGGSGKRNYVATGATKDGKRFGNAWGTFK
- development of resistance (S. pyogenes strain 5005): neither MRSA nor S. pyogenes established resistance; also recorded: None of MRSA strain MW2, MSSA strain 8325, nor S. pyogenes strain 5005 developed resistance
- survival over 10 days (mice surviving/total) (MRSA strain MW2; IP 3 h post-infection, ClyS 1 mg): 16/18
- mice died at forty-eight hours (dead/total) (MRSA strain MW2): 2/18
- survival over 10 days (MRSA strain MW2; ClyS 1 mg): 88%
